Reference: IntAct's records for PubMed 24751834

B1: Type VI secretion system spike protein VgrG3 (Vibrio cholerae), Q9KN42 (parent)
chain: MARLQFQLKVDGLEDESLVVRGFEGQESLSDSVWRCEPCYGFRYQVDLASALSNLTAEQFVDQTAHLTILRDGQVVQQINGIVRQLSKGDTGHRHTFYSLTLVPALERLSLRSNSRIFQQQSVPEIISILLQEMGIEDYAFALKRECAQREFCVQYRETDLQFLHRIAAEEGLVYSHLHEAQKHTLLFTDSSDSQPKLAKPVPYNALAGGEINLPYVVDLQFKTTAQVSHTELKDYSFKKPAYGFTQRTQGKDIAYQQPNYEHFDAPGRYKDDANGKAFSQIRLEYLRRDALLADAKSDEPLLLAGVRFDLQDHLDHAMNRDWLVVQANHQGTQPQALQEEGGSGATTYSNQLKLIPAHITWRARPCAKPQVDGPMIATVVGPQGEEIYCDNFGRVKVHFPWDRYSSSNEKSSCWVRVAQEWAGSQYGSMAIPRVGHEVIVSFLNGDPDQPIITGRTYHATNTAPYALPDHKTKTVLRTETHQGQGYNELSFEDQAGSEQILLHAQKDWDALIEHDHTEVIRHDQHLTVDNDRFTRIQRNQHLTVEGEVRSKIALDSSHEVGASLQHKVGQRIAVEAGKEISLKSGAKIVVEAGAELTLKAGGSFVKVDAGGVHLVGPAINLNAGGSAGSGSAYGGQLAAAPRMLAQAKPVAELVQPDIAASMQSGAARVIDVASLPTMMPSSANNTANDEPVAEEKTPERILKSDLLKPSDELEKLAKRQASAYRQGNHSDEVKLLQEALIKLGFDLGKAGADGDFGSKTKTAIEQFQKSYQPSHQTHPSYSIGAVDGIVGKGTLLALDEALMDGWVYENNIYQIWPLGKTSEKYESAGRGPGVISTGNGDYGGASYGCYQMSSNLGVVQKYIQSSKFKEFFSGLNPATKEFNVVWQDIASRYPQEFREEQHQFIKRTHYDIQIGHLRGKGLLFEHNRAAVHDLIWSTSVQFGGRTNLIFNALNGQNMESMTDKDIIILVQDYKLVNTERLFKSSPSWWSDLKKRAVSEKKALLELEIDGLEVDIK
partner: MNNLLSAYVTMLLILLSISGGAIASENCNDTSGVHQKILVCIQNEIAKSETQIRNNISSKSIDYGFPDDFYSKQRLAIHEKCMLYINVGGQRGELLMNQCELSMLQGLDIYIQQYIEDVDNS

Variants of: B1
Conditions: with tsiv3_vibch tsiV3, Q9KN41

Variant | effect of a mutation on the interaction
D842A | decreasing interaction

Variants of: B1
Conditions: with tsiv3_vibch tsiV3, Q9KN41
Remark: another data set of the same source

Variant | effect of a mutation on the interaction
Y826A | decreasing interaction

Variants of: B1
Conditions: with tsiv3_vibch tsiV3, Q9KN41
Remark: another data set of the same source

Variant | effect of a mutation on the interaction
Q942A | decreasing interaction

Variants of: B1
Conditions: with tsiv3_vibch tsiV3, Q9KN41
Remark: another data set of the same source

Variant | effect of a mutation on the interaction
R996A | decreasing interaction

Variants of: B1
Conditions: with tsiv3_vibch tsiV3, Q9KN41
Remark: another data set of the same source

Variant | effect of a mutation on the interaction
L982A | decreasing interaction

Variants of: B1
Conditions: with tsiv3_vibch tsiV3, Q9KN41
Remark: another data set of the same source

Variant | effect of a mutation on the interaction
V941A | decreasing interaction
